{
  "source": "paper PMC3448639",
  "proteins": {"B1": {"name": "SR-BI (scavenger receptor class B type I; CLA-1): T175A (protein)", "parent chain": "MGCSAKARWAAGALGVAGLLCAVLGAVMIVMVPSLIKQQVLKNVRIDPSSLSFNMWKEIPIPFYLSVYFFDVMNPSEILKGEKPQVRERGPYVYREFRHKSNITFNNNDTVSFLEYRTFQFQPSKSHGSESDYIVMPNILVLGAAVMMENKPMTLKLIMTLAFTTLGERAFMNRTVGEIMWGYKDPLVNLINKYFPGMFPFKDKFGLFAELNNSDSGLFTVFTGVQNISRIHLVDKWNGLSKVDFWHSDQCNMINGTSGQMWPPFMTPESSLEFYSPEACRSMKLMYKESGVFEGIPTYRFVAPKTLFANGSIYPPNEGFCPCLESGIQNVSTCRFSAPLFLSHPHFLNADPVLAEAVTGLHPNQEAHSLFLDIHPVTGIPMNCSVKLQLSLYMKSVAGIGQTGKIEPVVLPLLWFAESGAMEGETLHTFYTQLVLMPKVMHYAQYVLLALGCVLLLVPVICQIRSQVGAGQRAARADSHSLACWGKGASDRTLWPTAAWSPPPAAVLRLCRSGSGHCWGLRSTLASFACRVATTLPVLEGLGPSLGGGTGS"}},
  "test": "6% PFO-PAGE immunoblot",
  "conditions": "glycan lost; control: wild type",
  "data": [
    {"protein": "B1", "values": [
      {"measurement": "oligomerisation", "value": "no change"}
    ]}
  ]
}
